Measurements: publication PMC8202955, “The nonreceptor tyrosine kinase SRMS inhibits autophagy and promotes tumor growth by phosphorylating the scaffolding protein FKBP51” (PLoS Biology, 2021)

Tests used:
[1] = target: T1, SRMS (Src-related kinase lacking C-terminal regulatory tyrosine and N-terminal myristylation sites) (Homo sapiens, UniProt Q9H3Y6); assay: peptide substrate mobility shift kinase assay with purified recombinant kinase domain ([…] SRMS, […] ATP); type: biochemical
T1 construct: human SRMS kinase domain (residues 221 to 486)

[2] = phosphorylation at Y54

T1 sequence (Q9H3Y6 221-486): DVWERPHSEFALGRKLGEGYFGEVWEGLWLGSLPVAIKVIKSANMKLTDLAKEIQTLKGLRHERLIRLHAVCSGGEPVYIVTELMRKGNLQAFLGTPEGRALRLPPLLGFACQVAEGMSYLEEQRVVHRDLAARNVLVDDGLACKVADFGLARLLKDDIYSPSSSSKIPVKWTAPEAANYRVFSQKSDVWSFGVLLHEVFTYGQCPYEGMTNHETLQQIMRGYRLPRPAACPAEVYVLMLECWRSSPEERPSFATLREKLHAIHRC

Compound	IC50 [1]	degradation_or_half_life [2]
C=CC(=O)N1CCC[C@@H](n2nc(-c3ccc(Oc4ccccc4)cc3)c3c(N)ncnc32)C1 [ibrutinib]	33 nM	–
FKBP51: SRMS knockout (CRISPR/Cas9)	–	decreases
FKBP51: ibrutinib (SRMS inhibitor)	–	decreases
